From US20260250412A1 (GENEQUANTUM HEALTHCARE SUZHOU, published 2026) come the findings set out here.

Substitutions are numbered along the chain they refer to.

T1: recombinant extracellular domain of human TROP2 (human, UniProt P09758 27-274)
T1 construct: extracellular domain; also called Human Trop 2 ECD; Trop2 ECD
T1 sequence (looked up): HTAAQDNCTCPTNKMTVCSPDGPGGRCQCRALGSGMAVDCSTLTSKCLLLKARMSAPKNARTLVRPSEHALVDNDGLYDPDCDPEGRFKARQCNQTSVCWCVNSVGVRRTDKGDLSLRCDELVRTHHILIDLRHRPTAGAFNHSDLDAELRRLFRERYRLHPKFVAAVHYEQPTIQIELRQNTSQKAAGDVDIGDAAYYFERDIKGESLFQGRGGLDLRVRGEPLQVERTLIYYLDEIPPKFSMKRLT

B1: Trodelvy (antibody, human IgG1, kappa)
heavy: not shown
light: DIQLTQSPSSLSASVGDRVSITCKASQDVSIAVAWYQQKPGKAPKLLIYSASYRYTGVPDRFSGSGSGTDFTLTISSLQPEDFAVYYCQQHYITPLTFGAGTKVEIKRTVAAPSVFIFPPSDEQLKSGTASVVCLLNNFYPREAKVQWKVDNALQSGNSQESVTEQDSKDSTYSLSSTLTLSKADYEKHKVYACEVTHQGLSSPVTKSFNRGEC
modifications: SN-38 conjugated; sites not stated
notes: also called IMMU-132
B2: ADC-2 (antibody, human IgG1, kappa)
heavy: not shown
light: DIQLTQSPSSLSASVGDRVSITCKASQDVSIAVAWYQQKPGKAPKLLIYSASYRYTGVPDRFSGSGSGTDFTLTISSLQPEDFAVYYCQQHYITPLTFGAGTKVEIKRTVAAPSVFIFPPSDEQLKSGTASVVCLLNNFYPREAKVQWKVDNALQSGNSQESVTEQDSKDSTYSLSSTLTLSKADYEKHKVYACEVTHQGLSSPVTKSFNRGECGALPETGG
B3: GQhRS7 (antibody, human IgG1, kappa)
heavy: not shown
light: B2 light
notes: unconjugated
B4: Datopotamab (antibody, human IgG1, kappa, V domains shown)
VH: QVQLVQSGAEVKKPGASVKVSCKASGYTFTTAGMQWVRQAPGQGLEWMGWINTHSGVPKYAEDFKGRVTISADTSTSTAYLQLSSLKSEDTAVYYCARSGFGSSYWYFDVWGQGTLVTVSS
VL: DIQMTQSPSSLSASVGDRVTITCKASQDVSTAVAWYQQKPGKAPKLLIYSASYRYTGVPSRFSGSGSGTDFTLTISSLQPEDFAVYYCQQHYITPLTFGQGTKLEIKR
notes: expressed in HEK293F; also called DS1062a Ab; DS1062's antibody
B5: hRS7 (from TRODELVY) (antibody, human IgG1, kappa)
heavy: not shown
light: B1 light
notes: expressed in HEK293F; also called Trodelvy's antibody
B6: Ab16 (antibody, human IgG1, kappa, V domains shown)
VH: QVQLQQSGSELKKPGASVKVSCKASGYTFTAAGMNWVKQAPGQGLKWMGWINTYTGEPTYTDDFKGRFAFSLDTSVSTAYLQISSLKADDTAVYFCARGGFGSSYWYFDVWGQGSLVTVSS
VL: B4 VL with M4L, T20S, T31I, S60D, Q100A, L104V
B7: Ab13 (antibody, human IgG1, kappa, V domains shown)
VH: B6 VH with A31N, Y54D, T55S
VL: B4 VL with M4L, T20S, T31I, S60D, Q100A, L104V

In the first test the target is T1, recombinant extracellular domain of …. Nature of the test: ELISA on plate-coated human Trop2 ECD (0.5 ug/mL), detection with goat anti-human Fc-HRP, TMB, absorbance at 450 nm. On the procedure:
Human Trop 2 ECD at concentration of 0.5 μg/mL was coated on 96-well plates at 4° C. for overnight. The plates were then blocked with 3% BSA-PBST for 1 h at room temperature. […] After incubation goat anti-human FC secondary antibody (HRP) (Sinobiological, SSA001) was added at a ratio of 1:100000 and incubated at room temperature for 60 min again. Following the wash, the plate was treated with TMB solution (Sigma, T0440) as an HRP substrate, and the reaction was stopped with 1 M H₂SO₄. The absorbance for each well was detected at 450 nm wavelength.
Background: An ELISA detects its analyte on a solid surface through an enzyme-linked reagent.
Regarding B1, the EC50 (read off the curve) (usually the concentration needed to bring the measured effect to its halfway point) was about 0.02 µg/mL.

As for B2, the “EC50 (read off the curve)” value is about 0.02 µg/mL.

In the case of B3, the “EC50 (read off the curve)” value is about 0.02 µg/mL.

The target is the same in a further test. Nature of the test: SPR (Biacore T200), antibody captured on Protein A chip, TROP2 ECD as analyte, 1:1 model, 25 C. On the procedure: Binding kinetics and affinity analysis were performed. Surface Plasmon Resonance (SPR) analysis was performed on a Biacore T200 (GE healthcare) with a Sensor Chip Protein A (GE healthcare) following manufacturer's instructions. All measurements were performed at 25° C. in the HBS-EP⁺ buffer (10 mM HEPES, pH 7.4, 150 mM NaCl, 3 mM EDTA, and 0.05% surfactant P20). About 110-140 RU (Resonance unit) of each of the purified antibodies was captured on flow cells 2 and 4 (i.e., the reaction surface) of the sensor chip, respectively. Flow cells 1 and 3 were treated with the HBS-EP⁺ buffer to serve as reference surfaces.
Serial dilutions of the recombinant extracellular domain of human TROP2 (i.e., the analyte) (Acrobio system) (243, 81, 27, 9, 3, 1, 0.333, and 0.111 nM, respectively) were prepared in HBS-EP⁺ buffer. Capturing of the antibodies was followed by a three-minute injection (association phase) of serial dilutions of TROP2 at a flow rate of 30 μL/min and ten minutes of buffer flow (dissociation phase). The chip surface was regenerated by two pulses of 30-second injection of 10 mM Glycine-HCl pH 1.5 at a flow rate of 50 μL/min. The collected data were processed on a Biacore T200 Evaluation software using methods known in the art, comprising the following steps: (1) setting the response on the y-axis and the start of the injection on the x-axis to zero, (2) performing double referencing by firstly subtracting the reference surface data from the reaction surface data to get the analyte injection curves, and then subtracting the buffer injection curves from the analyte injection curves, and (3) performing the kinetic analysis using the 1:1 binding model with a global fit.
For orientation: In SPR one partner is held on a chip, and binding of the other changes the refractive index at the surface.
On to B4, for which the Kd – broadly, the equilibrium constant for the complex coming apart – came out at 13 nM.

As for B5, the equilibrium dissociation constant (Kd) was determined as 1.28 nM.

With B6, the Kd worked out at 13.1 nM.

On to B7, for which the Kd is 8.16 nM.
